Data from patent US20200338216A1.

Biological target: murine PDL-1 (murine) (UniProt Q9EP73)
Experiment: bead based FACS of purified EVADER vectors with fluorescent-labelled antibody

Chain of UniProt Q9EP73 (Q9EP73 19-290): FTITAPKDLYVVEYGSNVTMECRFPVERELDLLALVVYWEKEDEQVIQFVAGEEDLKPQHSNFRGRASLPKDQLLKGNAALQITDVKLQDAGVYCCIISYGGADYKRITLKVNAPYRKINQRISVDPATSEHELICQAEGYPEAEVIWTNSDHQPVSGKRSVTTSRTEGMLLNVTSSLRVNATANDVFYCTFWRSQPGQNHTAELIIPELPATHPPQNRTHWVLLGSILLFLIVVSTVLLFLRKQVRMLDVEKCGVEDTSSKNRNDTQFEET

anti-murine PDL-1 (anti-PDL-1-PE-A, Abcam catalog number ab213480) (antibody)
percent of EVADER vector particles positive (level on the surface): 75.3%
